# According to the RNAGym collection of RNA variant scans (doi:10.1021/acssynbio.7b00057):
# B1: Pistol ribozyme (parent)
# chain: GGGUCGUUGUUCCAUAAUCGCGUGGAUAUGGCACGCAAGUUUCUACCGGGCACCGUAAAUGUCCGACUGGAGCCGUUCGGGCGGCUAUAAACAGACCUCAGGCCCGAAGCGUGGCGGCACCUGCCGCCGGUGGUAAAAAAGAUCGGAAGAGCACACGUCU
# Variants of: B1
# Experiment: aptazyme ON/OFF ratio, guanine; higher = stronger switching; co-transcriptional cleavage with and without guanine
row,Variant,aptazyme ON/OFF ratio
1,U7A U8G G9U U10G U11C C12U C13G,1.47
2,U7A U8G G9U U10G U11C C12U C13U,1.05
3,U7A U8G G9U U11G C12G C13U,1.22
4,U7A U8G G9U U11G C12G C13G,1.19
5,U7A U8G G9U U11G C12G C13A,1.22
6,U7A U8G U10A C12G C13A,1.24
7,U7A U8G U10A C12G C13U,1.21
8,U7A U8G U10A C12G C13G,1.26
9,U7A U8G U10C C12G C13U,1.28
10,U7A U8G U10C C12G C13G,1.05
11,U7A U8G U10C C12G C13A,1.19
12,U7A U8G U10A U11C C12G,1.15
13,U7A U8G U10A U11C C12A,1.49
14,U7A U8G U10A U11C C12U,1.29
15,U7A U8G U10A C12U,1.17
16,U7A U8G U10A C12G,1.22
17,U7A U8G U10A C12A,1.23
18,U7A U8G U10A U11A C12A C13G,1.38
19,U7A U8G U10A U11A C12A C13A,1.34
20,U7A U8G U10A U11A C12A C13U,1.12
21,U7A U8G U10A C12U C13U,1.42

row,Variant,aptazyme ON/OFF ratio
1,U7A U8G U10A C12U C13G,1.25
2,U7A U8G U10A C12U C13A,1.32
3,U7A U8G G9U U10G U11C C12A C13U,1.16
4,U7A U8G G9U U10G U11C C12A C13G,1.13
5,U7A U8G G9U U10G U11C C12A C13A,1.14
6,U7A U8G G9U U10G U11A C13A,1.17
7,U7A U8G G9U U10G U11A C13U,1.14
8,U7A U8G G9U U10G U11A C13G,1.25
9,U7A U8G G9U U10G U11G C12G C13A,1.16
10,U7A U8G G9U U10G U11G C12G C13U,0.953
11,U7A U8G G9U U10G U11G C12G C13G,1.24
12,U7A U8G G9U U10G U11C C12G C13G,1.13
13,U7A U8G G9U U10G U11C C12G C13A,1.11
14,U7A U8G G9U U10G U11C C12G C13U,1.22
15,U7A U8G U10A U11G C12U,1.12
16,U7A U8G U10A U11G C12A,1.43
17,U7A U8G U10A U11G C12G,1.32
18,U7A U8G G9U U11A C12G,1.38
19,U7A U8G G9U U11A C12A,1.59
20,U7A U8G G9U U11A C12U,1.38
21,U7A U8G U10A U11A C12G C13U,1.63

row,Variant,aptazyme ON/OFF ratio
1,U7A U8G U10A U11A C12G C13G,1.26
2,U7A U8G U10A U11A C12G C13A,1.56
3,U7A U8G G9U U10G U11G C13G,1.19
4,U7A U8G G9U U10G U11G C13U,1.24
5,U7A U8G G9U U10G U11G C13A,1.16
6,U7A U8G U10A U11G C12A C13U,1.08
7,U7A U8G U10A U11G C12A C13A,1.28
8,U7A U8G U10A U11G C12A C13G,1.21
9,U7A U8G G9U U11A C12A C13U,1.25
10,U7A U8G G9U U11A C12A C13A,1.53
11,U7A U8G G9U U11A C12A C13G,1.38
12,U7A U8G G9U U11C C12A,1.23
13,U7A U8G G9U U11C C12U,1.54
14,U7A U8G G9U U11C C12G,1.26
15,U7A U8G G9U U11C C12A C13U,1.11
16,U7A U8G G9U U11C C12A C13A,1.68
17,U7A U8G G9U U11C C12A C13G,1.12
18,U7A U8G U10C C12A C13G,1.25
19,U7A U8G U10C C12A C13U,1.51
20,U7A U8G U10C C12A C13A,1.41
21,U7A U8G U10A C12A C13A,1.17

row,Variant,aptazyme ON/OFF ratio
1,U7A U8G U10A C12A C13U,1.48
2,U7A U8G U10A C12A C13G,1.23
3,U7A U8G G9U U11G C12U C13G,1.29
4,U7A U8G G9U U11G C12U C13U,1.29
5,U7A U8G G9U U11G C12U C13A,1.18
6,U7A U8G U10C C13G,1.32
7,U7A U8G U10C C13A,1.45
8,U7A U8G U10C C13U,1.4
9,U7A U8G G9U U11A C12G C13A,1.11
10,U7A U8G G9U U11A C12G C13G,1.26
11,U7A U8G G9U U11A C12G C13U,1.39
12,U7A U8G U10C U11A,1.95
13,U7A U8G G9U U11A,2.05
14,U7A U8G G9U U11G,1.94
15,U7A U8G G9U U11C,1.45
16,U7A U8G U10A C13A,1.09
17,U7A U8G U10A C13U,1.12
18,U7A U8G U10A C13G,1.26
19,U7A U8G U10A U11G C12G C13G,1.43
20,U7A U8G U10A U11G C12G C13A,1.16
21,U7A U8G U10A U11G C12G C13U,1.46
